Target: GroEL (Escherichia coli, UniProt P0A6F5 1-548)
Assay: reconstitution of the complex

Chain of GroEL (P0A6F5 whole entry): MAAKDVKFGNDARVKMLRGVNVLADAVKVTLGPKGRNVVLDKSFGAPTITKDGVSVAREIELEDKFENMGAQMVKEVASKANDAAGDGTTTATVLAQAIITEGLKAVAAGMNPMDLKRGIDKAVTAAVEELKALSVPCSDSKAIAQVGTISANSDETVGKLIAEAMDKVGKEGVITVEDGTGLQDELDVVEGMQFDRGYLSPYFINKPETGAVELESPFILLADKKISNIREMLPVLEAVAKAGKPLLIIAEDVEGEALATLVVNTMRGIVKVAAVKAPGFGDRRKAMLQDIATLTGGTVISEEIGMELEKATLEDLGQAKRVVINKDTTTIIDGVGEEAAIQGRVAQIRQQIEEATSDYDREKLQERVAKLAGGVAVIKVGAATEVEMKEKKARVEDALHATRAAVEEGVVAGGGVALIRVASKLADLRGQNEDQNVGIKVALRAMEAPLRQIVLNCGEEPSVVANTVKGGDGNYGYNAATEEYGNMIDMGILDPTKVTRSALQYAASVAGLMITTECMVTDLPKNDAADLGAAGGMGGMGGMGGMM

B1: GroES (natural protein, Escherichia coli, UniProt P0A6F9 1-97, looked up)
chain: MNIRPLHDRVIVKRKEVETKSAGGIVLTGSAAAKSTRGEVLAVGNGRILENGEVKPLDVKVGDIVIFNDGYGVKSEKIDNEEVLIMSESDILAIVEA
B1: binds.

Reference: article PMC9860310 (Proceedings of the National Academy of Sciences of the …, 2022)
